Measurements reported in US20250137008A1 (UNIVERSITY OF GLASGOW, published 2025).

T1: KAT1 voltage sensor domain (kVSD) (UniProt Q39128 1-200, limits assumed)
T1 construct: domain: voltage sensor domain (VSD); Nub-X prey in mbSUS; rBiFC partner; also called KAT1 VSD; VSD of KAT1
T1 sequence (looked up): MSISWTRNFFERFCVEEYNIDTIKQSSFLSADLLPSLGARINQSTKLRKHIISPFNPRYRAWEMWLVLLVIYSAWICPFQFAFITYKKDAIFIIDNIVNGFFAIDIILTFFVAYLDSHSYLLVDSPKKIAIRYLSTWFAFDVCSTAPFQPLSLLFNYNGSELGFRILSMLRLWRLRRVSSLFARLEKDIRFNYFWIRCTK

B1: full-length GORK channel (GORK-Cub bait fusion) (other)
chain: MGRLRRRQEIIDHEEEESNDDVSSRRGKLSLAETFRWLDSSEHRRIETDGHNDYKYIIHPKNRWYKAWEMFILVWAIYSSLFTPMEFGFFRGLPERLFVLDIVGQIAFLVDIVLQFFVAYRDTQSYRTVYKPTRIAFRYLKSHFLMDFIGCFPWDLIYKASGKHELVRYLLWIRLFRVRKVVEFFQRLEKDTRINYLFTRILKLLFVEVYCTHTAACIFYYLATTLPPEQEGYTWIGSLKLGDYSYENFREIDLWKRYTTALYFAIVTMATVGYGDIHAVNLREMIFVMIYVSFDMVLGAYLIGNVTALIVKGSNTERFRDKMNDLISFMNRKKLGRDLRSQITGHVRLQYDSHYTDTVMLQDIPASIRAKIAQLLYLPYIKKVPLFKGCSTEFINQIVIRLHEEYFLPGEVITEQGNVVDHLYFVCEGLLEALVTKTDGSEESVTLLGPHTSFGDISIICNISQPFTVRVCELCHLLRLDKQSFSNILEIYFHDGRTILNNIMEEKESNDRIKKLESDIVIHIGKQEAELALKVNSAAFQGDFYQLKSLIRSGADPNKTDYDGRSPLHLAACRGYEDITLFLIQEGVDVNLKDKFGHTPLFEAVKAGQEGVIGLLVKEGASFNLEDSGNFLCTTVAKGDSDFLKRLLSSGMNPNSEDYDHRTPLHVAASEGLFLMAKMLVEAGASVISKDRWGNSPLDEARLCGNKKLIKLLEDVKNAQSSIYPSSLRELQEERIERRKCTVFPFHPQEAKEERSRKHGVVVWVPSNLEKLIVTAAKELGLSDGASFVLLSEDQGRITDIDMISDGHKLYMISDTTDQT
notes: Full-length channel expressed in yeast as a Cub bait fusion (mbSUS) and in vivo as an rBiFC partner; also called full-length GORK channel Y-Cub fusion; Guard cell Outward Rectifying Potassium (K+) channel
B2: gVSD^NP (other)
chain: MGRLRRRQEIIDHEEEESNDDVSSRRGKLSLAKTFRWLKSSKKRRIKTKGKNKYKYIIKPKNRWYKAWEMFILVWAIYSSLFTPMEFGFFRGLPERLFVLDIVGQIAFLVDIVLQFFVAYRDTQTYRTVYKPTRIAFRYLKSHFLMDFIGCFPWDLIYKASGKHELVRYLLWIRLFRVRKVVEFFQRLEKDTRINYLFTRILK
notes: All negatively-charged amino acids (Asp, Glu) of the N-terminal charged domains replaced with Lys
B3: gVSD^PN (other)
chain: MGRLRRRQEIIDHEEEESNDDVSSDDGDLSLAETFDWLDSSEDDDIETDGDNDYDYIIDPKNRWYKAWEMFILVWAIYSSLFTPMEFGFFRGLPERLFVLDIVGQIAFLVDIVLQFFVAYRDTQTYRTVYKPTRIAFRYLKSHFLMDFIGCFPWDLIYKASGKHELVRYLLWIRLFRVRKVVEFFQRLEKDTRINYLFTRILK
notes: All positively-charged residues of the N-terminal charged domains replaced with negatively-charged residues
B4: kVSD N-terminus (soluble) (other, UniProt Q39128 1-63, looked up)
chain: MSISWTRNFFERFCVEEYNIDTIKQSSFLSADLLPSLGARINQSTKLRKHIISPFNPRYRAWE
notes: domain: cytosolic N-terminus; Gel filtration construct; also called kVSD N-termini; KAT1 N-terminus
B5: gVSD^NP N-terminus (soluble) (other)
chain: MGRLRRRQEIIDHEEEESNDDVSSRRGKLSLAKTFRWLKSSKKRRIKTKGKNKYKYIIKPKNRWYKAWE
notes: also called gVSDNP N-termini

Legend:
[1] = molecular target: T1, KAT1 voltage sensor domain (kVSD); assay: mbSUS, GORK-Cub bait
full-length KAT1 = molecular target: T2, full-length KAT1 (UniProt Q39128 1-677, limits assumed); assay: mbSUS, GORK-Cub bait
T2 construct: whole, on cells; Nub-X prey in mbSUS in yeast

[2] = molecular target: B1; assay: rBiFC in vivo, confocal imaging
[3] = molecular target: B1; assay: mbSUS, GORK-Cub bait
[4] = molecular target: the molecule itself; assay: gel filtration of soluble N-termini (self-association)

**Q.** Does B1 bind [1]?
**A.** no binding

**Q.** Does B1 bind (full-length KAT1)?
**A.** no binding

**Q.** Does B2 bind [2]?
**A.** no binding

**Q.** Does B3 bind [3]?
**A.** no binding

**Q.** Does B4 bind [4]?
**A.** no binding

**Q.** Does B5 bind [4]?
**A.** no binding
